Test results from a protein production outcome set (Wang et al. 2014).

Assay: label from the status in PepcDB records

Protein production, failed:
MAAPLAPWRVSAFNTAKQSENKMHDDTVARRFGFTGGLVPGVEVMAYMMHLPVARWGRDFLERGLIEARFVKPVYDGETATVTGEEQGEAITLAVESRGELCATGSASLPVRAPAVDLGAYPETAAATNRPPVGAQSFPEGHWFGTAPVNWGGAKLRDYLDEIRETDPIYRSDDLIHPGTLQRIMNRVLVDNVVLGPWIHVGSKMQLLAAARGDDVLTARAKVVANYDKKGHRFAEFDALIVANGDRPVAHCHHVAIFAPRQQAAA, MAAPMEVAVCTDSAAPMWSCIVWELHSGANLLTYRGGQAGPRGLALLNGEYLLAAQLGKNYISAWELQRKDQLQQKIMCPGPVTCLTASPNGLYVLAGVAESIHLWEVSTGNLLVILSRHYQDVSCLQFTGDSSHFISGGKDCLVLVWSLCSVLQADPSRIPAPRHVWSHHTLPITDLHCGFGGPLARVATSSLDQTVKLWEVSSGELLLSVLFDVSIMAVTMDLAEHHMFCGGSEGSIFQVDLFTWPGQRERSFHPEQDAGKVFKGHRNQVTCLSVSTDGSVLLSGSHDETVRLWDVQSKQCIRTVALKGPVTNAAILLAPVSMLSSDFRPSLPLPHFNKHLLGAEHGDEPRHGGLTLRLGLHQQGSEPSYLDRTEQLQAVLCSTMEKSVLGGQDQLRVRVTELEDEVRNLRKINRDLFDFSTRFITRPAK, MAAQAAAAAQAAAAAQAAAAQAAQAEAAESWYLALLGFAEHFRTSSPPKIRLCVHCLQAVFPFKPPQRIEARTHLQLGSVLYHHTKNSEQARSHLEKAWLISQQIPQFEDVKFEAASLLSELYCQENSVDAAKPLLRKAIQISQQTPYWHCRLLFQLAQLHTLEKDLVSACDLLGVGAEYARVVGSEYTRALFLLSKGMLLLMERKLQEVHPLLTLCGQIVENWQGNPIQKESLRVFFLVLQVTHYLDAGQVKSVKPCLKQLQQCIQTISTLHDDEILPSNPADLFHWLPKEHMCVLVYLVTVMHSMQAGYLEKAQKYTDKALMRLEKLKMLDCSPILSSFQVILLEHIIMCRLVTGHKATALQEISQVCQLCQQSPRLFSNHAAQLHTLLGLYCVSVNCMDNAEAQFTTALRLTNHQELWAFIVTNLASVYIREGNRHQELYSLLERINPDHSFPVSSHCLRAAAFYVRGLFSFFQGRYNEAKRFLRETLKMSNAEDLNRLTACSLVLLGHIFYVLGNHRESNNMVVPAMQLASKIPDMSVQLWSSALLRDLNKACGNAMDAHEAAQMHQNFSQQLLQDHIEACSLPEHNLITWTDGPPPVQFQAQNGPNTSLASLL, MAARGFRAGADHLRHQFCPPLVDPHRPWTARMKLLALSGSLRADSVNTALLRALAEAAPAGVEVCFFDGLRDLPLFNPDAEERENAAVTAWRAALRGADAVVISSPEYAHGIPGAFKNALDWVVGSAEFDGKPTLLLCASARPQHAPAQLAEVLRTMGARVQGPHLLDLPGNVAAAQSALRTPAQQAEARELLAALLP, MAASMARGVSARVLLRAAGGSWGPRAGHAAVTSRTFGSTGERRAGEDEADSPELPRDVVNVVFVDRSGKRIPVRGRVGDNVLHLAQRHGVDLEGACEASLACSTCHVYVSEAHLDLLPPPEEREDDMLDMAPLLQENSRLGCQIVLTPELEGAEFALPKITRNFYVDGHIPKPH, MAASQTPARILVTGVAGNLGRKVVEALASTPWCTSIIGVDWVEQSMQFSPQAAQRLRWVVADLTQADGAWTALLDEVDAVIHLAAIHSTPDATWEQALASYGMTLNVLQAAATRGVRRFVFASSNHAMGAYKDQPLAGTIGPGRLIAELAPAPGTRWHNGIEEVYSLAYGTSKAMGERLCKAVAAVSGGRLSVVALRIGWALPDDNDPNDINHSGTADTPVPGSVPDEASRIALRWFRNMWLSNDDLRQLFIAAVTADPARWPAPAIVVNGVSNNTGMDWGLETGRALIGYEPQDDLYARLTQPA, MAASSLATQPAMKLAPDDLDSITATTLGHYQQVAEDFREGTRDHDVSQNIDALLRHIQGSAPFTVLDFGCGPGRDLQAFTRLGHVAIGLDGCERFAQMAREDSGCEVWQQDFLKLDLPAERFDGIFANAVLFHIPRQELPRVLKQLHASLKDGGVLFSSNPRGDNQEGWNGPRYGAYHDLAAWQALLTDAGFVELEHYYRPAGLPREQQPWLASVWRKA
